Assay results published in patent US20260007698A1 (published 2026).

Experiments:
[1] = molecular target: T1, VCY (Variable charge Y-linked) CT antigen; peptide VCY-23 peptide on HLA-A*11:01 (human); test: multimer staining
T1 peptide: SSQPSPSGPK

[2] = molecular target: T2, VCX; peptide VCX-23 peptide on HLA-A*11:01 (human); test: killing
T2 peptide: SSQPSPSDPK

B1: VCY-23 specific TCR (TCR, V domains shown)
Valpha: RKEVEQDPGPFNVPEGATVAFNCTYSNSASQSFFWYRQDCRKEPKLLMSVYSSGNEDGRFTAQLNRASQYISLLIRDSKLSDSATYLCVVTFDNYGQNFVFGPGTRLSVLP
Vbeta: NAGVTQTPKFRVLKTGQSMTLLCAQDMNHEYMYWYRQDPGMGLRLIHYSVGEGTTAKGEVPDGYNVSRLKKQNFLLGLESAAPSQTSVYFCASSYTYNYNEQFFGPGTRLTVL
Q: Does B1 bind [1]?
A: recognises

Q: Does B1 bind [2]?
A: no recognition
